Experimental data from publication PMC11662940 (Nucleic Acids Research, 2024).

Target: T1, ScUba4 (Saccharomyces cerevisiae Uba4) (S. cerevisiae, UniProt P38820 1-440)
T1 sequence: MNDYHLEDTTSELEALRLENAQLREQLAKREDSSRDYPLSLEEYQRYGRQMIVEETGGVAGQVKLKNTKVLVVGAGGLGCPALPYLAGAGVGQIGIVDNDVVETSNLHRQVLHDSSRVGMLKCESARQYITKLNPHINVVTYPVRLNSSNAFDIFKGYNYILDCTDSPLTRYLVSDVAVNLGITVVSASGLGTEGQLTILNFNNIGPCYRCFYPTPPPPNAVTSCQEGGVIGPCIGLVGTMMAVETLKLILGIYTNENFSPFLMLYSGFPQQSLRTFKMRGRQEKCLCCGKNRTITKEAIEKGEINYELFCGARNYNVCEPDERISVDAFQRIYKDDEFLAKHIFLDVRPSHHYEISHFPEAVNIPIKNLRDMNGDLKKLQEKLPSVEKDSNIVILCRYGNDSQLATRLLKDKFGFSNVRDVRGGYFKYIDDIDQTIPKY
Assay: SEC

B1: Thiocarboxylated ScUrm1 (natural protein)
chain: MVNVKVEFLGGLDAIFGKQRVHKIKMDKEDPVTVGDLIDHIVSTMINNPNDVSIFIEDDSIRPGIITLINDTDWELEGEKDYILEDGDIISFTSTLHGG
modifications: thiocarboxylate at the C-terminus
B1: binds.
